Laboratory results taken from patent US20240376151A1, “STAPLED PEPTIDES AND METHODS THEREOF” (FOG PHARMACEUTICALS, INC., priority 2022, published 2024).
Numbered stars: 1 amine (or outer) side, 2 acyl side, 3 side chain; on linkers, the order of the positions; unused ones are H or OH. Bridge positions count the residues as written; N and C are the ends. Ends that are not written are not given here. Phenylene(1,4-NHCOCH2)2 = O=C(C[*:1])Nc1ccc(NC(=O)C[*:2])cc1

What was measured:
[1] = target: T1, FBXW7-SKP1 (Homo sapiens, UniProt Q969H0); experiment: Naive Library Presenter Screening (phage, NGS), FBXW7-SKP1; type: binding; conditions: for interaction data at Target Concentration 10: FBXW7 target concentration 10 nM; for interaction data at Target Concentration 30: FBXW7 target concentration 30 nM; for interaction data at Target Concentration 100: FBXW7 target concentration 100 nM; for interaction data at Target Concentration 300: FBXW7 target concentration 300 nM; for interaction data at Target Concentration 1000: FBXW7 target concentration 1000 nM
T1 construct: FBXW7 (Uniprot ID: Q969H0, residues 263-706) with an N-terminal GST-TEV tag and C-terminal AVI tag; GST-TEV (N); made in house; host or cells: E. coli BL21 (DE3)
T1 sequence (Q969H0 263-706): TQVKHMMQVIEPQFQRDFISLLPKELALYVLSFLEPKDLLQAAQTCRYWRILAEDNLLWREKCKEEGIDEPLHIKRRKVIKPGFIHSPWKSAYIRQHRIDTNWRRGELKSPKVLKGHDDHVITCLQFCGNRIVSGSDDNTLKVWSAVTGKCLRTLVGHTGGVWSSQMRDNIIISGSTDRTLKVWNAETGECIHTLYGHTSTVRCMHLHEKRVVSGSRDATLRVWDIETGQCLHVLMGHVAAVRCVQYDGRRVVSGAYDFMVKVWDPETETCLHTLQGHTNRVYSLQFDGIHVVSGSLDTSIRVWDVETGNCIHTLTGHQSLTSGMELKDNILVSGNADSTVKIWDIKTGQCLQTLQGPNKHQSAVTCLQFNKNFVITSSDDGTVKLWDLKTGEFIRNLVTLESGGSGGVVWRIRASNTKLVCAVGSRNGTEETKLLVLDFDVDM
T1 sequence (P63208 whole entry partner, the tested form may be a part): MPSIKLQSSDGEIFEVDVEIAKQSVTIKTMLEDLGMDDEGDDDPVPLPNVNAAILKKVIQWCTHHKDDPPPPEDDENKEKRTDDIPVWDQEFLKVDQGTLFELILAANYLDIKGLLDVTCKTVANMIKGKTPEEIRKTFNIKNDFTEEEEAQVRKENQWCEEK
Protocol: To conduct phage library screening, previously described procedures were utilized in accordance with the present disclosure.
Next-generation sequencing was performed as described in accordance with the present disclosure.
Hit ID and Clustering is performed according to a described procedure in accordance with the present disclosure.

[2] = target: T2, WWP1 (Homo sapiens, UniProt Q9H0M0); experiment: Naive Library Presenter Screening (phage, NGS), WWP1 (construct not given); type: binding; conditions: for interaction data at Target Concentration 10: WWP1 target concentration 10 nM; for interaction data at Target Concentration 30: WWP1 target concentration 30 nM; for interaction data at Target Concentration 100: WWP1 target concentration 100 nM; for interaction data at Target Concentration 300: WWP1 target concentration 300 nM; for interaction data at Target Concentration 1000: WWP1 target concentration 1000 nM
T2 construct: GST-TEV (N, cleaved yes); made in house; host or cells: Escherichia coli BL21 (DE3)

| Sequence | interaction data at Target Concentration 10 [1] | interaction data at Target Concentration 30 [1] | interaction data at Target Concentration 100 [1] | interaction data at Target Concentration 300 [1] | interaction data at Target Concentration 1000 ([1]; first column) | interaction data at Target Concentration 1000 ([1]; second column) | interaction data at Target Concentration 10 [2] | interaction data at Target Concentration 30 [2] | interaction data at Target Concentration 100 [2] | interaction data at Target Concentration 300 [2] | interaction data at Target Concentration 1000 ([2]; second column) | interaction data at Target Concentration 1000 ([2]; first column) |
| --- | --- | --- | --- | --- | --- | --- | --- | --- | --- | --- | --- | --- |
| DPAAFFCDDAAERCEFW | 4 | 39 | 35 | 163 | 245 | 449 |  |  |  |  |  |  |
| DPAAWICEEAAEICEFW | 0 | 0 | 5 | 4 | 15 | 36 |  |  |  |  |  |  |
| DPADLTCEDAAELCEFW | 2 | 80 | 352 | 535 | 1005 | 510 |  |  |  |  |  |  |
| DPADMMCENAALLCEFW | 1 | 3 | 68 | 20 | 282 | 228 |  |  |  |  |  |  |
| DPADMYCRDAAELCEFW | 1 | 23 | 187 | 302 | 505 | 554 |  |  |  |  |  |  |
| DPAFLTCTLAASLCHQD (linker 7-14 via Phenylene(1,4-NHCOCH2)2) |  |  |  |  |  |  | 0 | 0 | 0 | 145 | 253 |  |
| DPAFWYCDEAAEMCEFW | 0 | 0 | 20 | 28 | 91 | 17 |  |  |  |  |  |  |
| DPAHQTCAFAAVLCHQN (linker 7-14 via Phenylene(1,4-NHCOCH2)2) |  |  |  |  |  |  | 0 | 0 | 32 | 18 | 309 |  |
| DPAHTACNQAARVCHTL (linker 7-14 via Phenylene(1,4-NHCOCH2)2) |  |  |  |  |  |  | 1 | 4 | 104 | 200 | 253 |  |
| DPAIFDCEFAAHVCSVL (linker 7-14 via Phenylene(1,4-NHCOCH2)2) |  |  |  |  |  |  | 0 | 26 |  | 436 | 618 | 275 |
| DPAIIRCTSAAMMCHNT (linker 7-14 via Phenylene(1,4-NHCOCH2)2) |  |  |  |  |  |  | 0 | 4 | 0 | 55 | 169 | 183 |
| DPAIMSCMYAAEVCRVL (linker 7-14 via Phenylene(1,4-NHCOCH2)2) |  |  |  |  |  |  | 0 | 1 | 147 | 109 | 253 | 183 |
| DPAIQRCSTAAQVCRYL (linker 7-14 via Phenylene(1,4-NHCOCH2)2) |  |  |  |  |  |  | 0 | 6 | 202 | 236 | 197 |  |
| DPAIRMCRDAAELCEFW | 0 | 0 | 1 | 4 | 66 | 94 |  |  |  |  |  |  |
| DPAITTCLDAAELCDFW | 1 | 26 | 61 | 34 | 215 | 132 |  |  |  |  |  |  |
| DPALASCQQAAWVCEVL (linker 7-14 via Phenylene(1,4-NHCOCH2)2) |  |  |  |  |  |  | 0 | 43 | 173 | 291 | 309 |  |
| DPALQTCMDAAQVCRLL (linker 7-14 via Phenylene(1,4-NHCOCH2)2) |  |  |  |  |  |  | 0 | 0 | 107 | 163 | 197 |  |
| DPAMIACSHAAQMCHWS (linker 7-14 via Phenylene(1,4-NHCOCH2)2) |  |  |  |  |  |  | 0 | 8 | 3 | 454 | 281 | 275 |
| DPAMRRCHQAAWVCEVL (linker 7-14 via Phenylene(1,4-NHCOCH2)2) |  |  |  |  |  |  | 0 | 1 | 98 | 182 | 140 | 183 |
| DPAQLSCTVAAHVCHST (linker 7-14 via Phenylene(1,4-NHCOCH2)2; not fully specified (C-terminus)) |  |  |  |  |  |  | 0 | 25 | 0 | 254 | 140 | 275 |
| DPAQQTCSQAAWVCSIL (linker 7-14 via Phenylene(1,4-NHCOCH2)2; not fully specified (C-terminus)) |  |  |  |  |  |  | 0 | 55 | 443 | 363 | 477 | 397 |
| DPARLDCTAAAYVCSVL (linker 7-14 via Phenylene(1,4-NHCOCH2)2) |  |  |  |  |  |  | 0 | 0 | 109 | 91 | 140 |  |
| DPARWACTEAAHVCDTL (linker 7-14 via Phenylene(1,4-NHCOCH2)2) |  |  |  |  |  |  | 0 | 2 |  | 182 | 281 | 183 |
| DPATETCAQAAVLCHSD (linker 7-14 via Phenylene(1,4-NHCOCH2)2 (inferred); not fully specified (C-terminus)) |  |  |  |  |  |  | 1 | 12 | 3 | 200 | 449 | 519 |
| DPATHVCTTAA VMCHQT (DPATHVCTTAAVMCHQT; not fully specified; cysteine pairing not given here) |  |  |  |  |  |  | 0 | 0 | 6 | 327 | 365 | 275 |
| DPATMNCTLAANICHSH (linker 7-14 via Phenylene(1,4-NHCOCH2)2 (inferred); not fully specified (C-terminus)) |  |  |  |  |  |  | 0 | 0 | 3 | 363 | 197 | 458 |
| DPAVRDCSDAAIVCELV (linker 7-14 via Phenylene(1,4-NHCOCH2)2) |  |  |  |  |  |  | 5 | 5 | 147 | 91 | 197 |  |
| DPAWMACAWAANLCHSS (linker 7-14 via Phenylene(1,4-NHCOCH2)2) |  |  |  |  |  |  | 0 | 18 | 14 | 91 | 253 | 244 |
| DPAWVSCVRAANLCHVS (linker 7-14 via Phenylene(1,4-NHCOCH2)2 (inferred); not fully specified (C-terminus)) |  |  |  |  |  |  | 33 | 1 | 0 | 0 | 140 | 183 |
